From IntAct's records for PubMed 25066297

B1: Probable thioesterase PNKD (Homo sapiens), Q8N490 (parent)
chain: MAAVVAATALKGRGARNARVLRGILAGATANKASHNRTRALQSHSSPEGKEEPEPLSPELEYIPRKRGKNPMKAVGLAWYSLYTRTWLGYLFYRQQLRRARNRYPKGHSKTQPRLFNGVKVLPIPVLSDNYSYLIIDTQAQLAVAVDPSDPRAVQASIEKEGVTLVAILCTHKHWDHSGGNRDLSRRHRDCRVYGSPQDGIPYLTHPLCHQDVVSVGRLQIRALATPGHTQGHLVYLLDGEPYKGPSCLFSGDLLFLSGCGRTFEGNAETMLSSLDTVLGLGDDTLLWPGHEYAEENLGFAGVVEPENLARERKMQWVQRQRLERKGTCPSTLGEERSYNPFLRTHCLALQEALGPGPGPTGDDDYSRAQLLEELRRLKDMHKSK

Variants of: B1
Conditions: with mk03_human MAPK3, P27361
Chain of mk03_human MAPK3, P27361 (P27361 whole entry): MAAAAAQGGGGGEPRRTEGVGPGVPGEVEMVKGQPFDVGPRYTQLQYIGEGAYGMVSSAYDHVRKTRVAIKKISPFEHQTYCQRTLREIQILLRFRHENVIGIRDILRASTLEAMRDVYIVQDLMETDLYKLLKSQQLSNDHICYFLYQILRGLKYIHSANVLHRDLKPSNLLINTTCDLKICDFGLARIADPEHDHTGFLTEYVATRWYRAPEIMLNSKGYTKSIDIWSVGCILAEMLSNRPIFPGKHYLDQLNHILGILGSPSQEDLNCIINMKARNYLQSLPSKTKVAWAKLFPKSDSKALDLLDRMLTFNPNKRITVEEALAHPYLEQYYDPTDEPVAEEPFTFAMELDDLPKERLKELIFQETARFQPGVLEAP

| effect of a mutation on the interaction | Variant |
| --- | --- |
| disrupting interaction | S46A |
